The target in assay [1] is CD20 on human Raji B cells (human) (UniProt P11836). Briefly: flow cytometry on Raji cells, anti-human IgG-PE detection. (In general: A flow cytometer gives signals particle by particle.)
Assay [2] addresses T1, CD20 on human Raji B cells (human, UniProt P11836 1-297).
T1 construct: whole, on cells; The target is presented on Raji cells; also called CD20+ human B lymphoma (Raji) cells; CD-20+ human Raji B cells
T1 sequence (looked up): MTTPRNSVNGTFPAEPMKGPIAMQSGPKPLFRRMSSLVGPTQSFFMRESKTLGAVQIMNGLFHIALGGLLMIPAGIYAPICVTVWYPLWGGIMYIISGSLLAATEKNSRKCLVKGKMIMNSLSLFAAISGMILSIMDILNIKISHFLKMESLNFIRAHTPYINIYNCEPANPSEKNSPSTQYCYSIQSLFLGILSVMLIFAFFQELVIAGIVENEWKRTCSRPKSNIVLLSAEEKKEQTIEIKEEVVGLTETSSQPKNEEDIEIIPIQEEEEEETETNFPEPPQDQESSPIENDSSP
The assay is described as above.

“Rituximab present in mouse serum after injection of a dual cassette, single plasmid Rituximab DNA vector (antibody)”: in assay [1], the Mean Fluorescence Intensity was 3530 and the fluorescence intensity, fold over background is more than 10 fold.

B1: recombinant Rituximab protein (antibody, V domains shown)
VH: QVQLQQPGAELVKPGASVKMSCKASGYTFTSYNMHWVKQTPGRGLEWIGAIYPGNGDTSYNQKFKGKATLTADKSSSTAYMQLSSLTSEDSAVYYCARSTYYGGDWYFNVWGAGTTVTVSA
VL: QIVLSQSPAILSASPGEKVTMTCRASSSVSYIHWFQQKPGSSPKPWIYATSNLASGVPVRFSGSGSGTSYSLTISRVEAEDAATYYCQQWTSNPPTFGGGTKLEIK
In the case of B1, the “fluorescence intensity, fold over background” value in assay [2] was more than 10 fold.

Source of the values: patent US20170080108A1 (DNARX, published 2017).
